Test results taken from patent US20260265394A1 (CARTESIAN THERAPEUTICS, published 2026).

Key:
soluble BCMA [1] = biological target: T1, soluble BCMA (UniProt Q02223 1-54, limits assumed); test: apparent affinity of anti-BCMA CAR to soluble BCMA (FIG. 10A); method not described
T1 sequence (looked up): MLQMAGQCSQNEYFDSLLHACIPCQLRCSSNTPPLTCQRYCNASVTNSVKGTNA

soluble BCMA [2] = biological target: T1, soluble BCMA; test: titration, '% of Max Binding' against 'Log Conc (nM)'; apparent affinity of anti-BCMA CAR to soluble BCMA; the text does not describe the assay

B1: anti-BCMA scFv1 (as CAR), Example 16 (scFv)
scFv: DIVLTQSPPSLAMSLGKRATISCRASESVTILGSHLIHWYQQKPGQPPTLLIQLASNVQTGVPARFSGSGSRTDFTLTIDPVEEDDVAVYYCLQSRTIPRTFGGGTKLEIKGSTSGSGKPGSGEGSTKGQIQLVQSGPELKKPGETVKISCKASGYTFTDYSINWVKRAPGKGLKWMGWINTETREPAYAYDFRGRFAFSLETSASTAYLQINNLKYEDTATYFCALDYSYAMDYWGQGTSVTVSS
Kd (soluble BCMA [1]): 3.2 nM
EC50 (read off the curve) (soluble BCMA [2]): ~10 nM
